For assay [1], the target named is Fc gamma receptor CD16a F variant (human) (UniProt P08637). As to the kind of experiment: ELISA, plate coated with recombinant huCD16a (F variant), detection with peroxidase anti-human IgG F(ab')2, OD 450 nm - 630 nm. In general terms: An ELISA detects its analyte on a solid surface through an enzyme-linked reagent.
For assay [2], the target named is human Dectin-1 (isoform not given) (human) (UniProt Q9BXN2). As to the kind of experiment: flow cytometry on human monocytes. In general terms: Flow cytometry measures light scatter and fluorescence of single cells or particles in a stream.
The target in assay [3] is human Dectin-1 isoform B (human) (UniProt Q9BXN2). As to the kind of experiment: flow cytometry on HEK-Blue hDectin-1b cells.
Assay [4] has as its target human Dectin-1 isoform A (human) (UniProt Q9BXN2). As to the kind of experiment: flow cytometry on HEK293F hDectin-1a FL cells.
The target is the same in assay [5]. As to the kind of experiment: flow cytometry on HEK-Blue hDectin-1a cells.
The target of assay [6] is cynomolgus monkey Dectin-1 (cynomolgus monkey). Kind of assay: flow cytometry, cynomolgus monkey monocytes.
Assay [7] shares this target. Kind of assay: flow cytometry on cynomolgus monkey monocytes.

For orientation: EC50 (read off the curve) means the concentration giving half of the maximal effect. Usually EC50 stands for the concentration needed to bring the measured effect to its halfway point.

human Dectin-1 isoform A (human), sequence (Q9BXN2 whole entry, canonical isoform): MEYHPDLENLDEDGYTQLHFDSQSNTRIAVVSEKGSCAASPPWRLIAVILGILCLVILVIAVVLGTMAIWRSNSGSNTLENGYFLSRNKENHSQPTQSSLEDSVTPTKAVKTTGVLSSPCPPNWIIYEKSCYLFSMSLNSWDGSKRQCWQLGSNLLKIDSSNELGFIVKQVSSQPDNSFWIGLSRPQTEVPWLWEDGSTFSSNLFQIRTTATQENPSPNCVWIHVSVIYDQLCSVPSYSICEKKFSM
human Dectin-1 (isoform not given) (human), sequence (Q9BXN2 whole entry, canonical isoform): as above
cynomolgus monkey Dectin-1 (cynomolgus monkey), sequence (chain, as listed by the source): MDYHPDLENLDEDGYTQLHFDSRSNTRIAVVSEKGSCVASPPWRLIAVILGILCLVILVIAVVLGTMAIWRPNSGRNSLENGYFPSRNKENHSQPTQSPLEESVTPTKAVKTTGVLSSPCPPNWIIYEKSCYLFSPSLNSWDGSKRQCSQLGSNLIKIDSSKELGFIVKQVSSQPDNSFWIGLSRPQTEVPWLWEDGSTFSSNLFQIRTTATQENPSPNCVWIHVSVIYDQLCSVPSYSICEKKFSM
human Dectin-1 isoform B (human), sequence (Q9BXN2 other isoform, or with tags, fused parts or gaps): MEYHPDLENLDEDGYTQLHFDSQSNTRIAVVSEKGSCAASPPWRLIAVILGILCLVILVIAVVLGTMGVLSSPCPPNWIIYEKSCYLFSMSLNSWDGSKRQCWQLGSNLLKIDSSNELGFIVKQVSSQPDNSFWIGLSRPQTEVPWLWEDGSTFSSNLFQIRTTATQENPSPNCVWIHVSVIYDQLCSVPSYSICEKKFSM
Fc gamma receptor CD16a F variant (human), sequence (P08637 17-208 limits assumed, change not shown): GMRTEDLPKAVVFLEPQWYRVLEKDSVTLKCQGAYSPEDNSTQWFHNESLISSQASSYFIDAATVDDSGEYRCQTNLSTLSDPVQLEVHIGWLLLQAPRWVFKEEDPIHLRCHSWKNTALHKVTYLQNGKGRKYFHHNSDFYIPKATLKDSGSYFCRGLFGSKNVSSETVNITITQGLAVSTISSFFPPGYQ

Regarding Control (antibody), in assay [1], the EC50 (read off the curve) is 0.07 mg/L.

Regarding commercial anti-Dectin-1 antibody GE2, the EC50 in assay [2] is 1.4 nM; in assay [3], 12 nM; in assay [4], 2.4 nM; in assay [5] it was 1.9 nM.

In the case of “commercial anti-Dectin-1 antibody 259931”, the EC50 in assay [6] came to 16 nM; in assay [7] it was 16.5 nM; in assay [2], 0.3 nM; in assay [3], 0.9 nM; in assay [4], 1.2 nM; in assay [5] it was 0.8 nM.

The record behind these values is US20250129168A1.
